Measured values: patent US20200247894A1 (Regeneron, published 2020)

T1: Human IL2Rγ extracellular domain expressed with a C-terminal myc-myc-hexahistidine tag (human)
T1 construct: also called hIL-2Rg-MMH; hIL-2RG-MMH
T1 chain: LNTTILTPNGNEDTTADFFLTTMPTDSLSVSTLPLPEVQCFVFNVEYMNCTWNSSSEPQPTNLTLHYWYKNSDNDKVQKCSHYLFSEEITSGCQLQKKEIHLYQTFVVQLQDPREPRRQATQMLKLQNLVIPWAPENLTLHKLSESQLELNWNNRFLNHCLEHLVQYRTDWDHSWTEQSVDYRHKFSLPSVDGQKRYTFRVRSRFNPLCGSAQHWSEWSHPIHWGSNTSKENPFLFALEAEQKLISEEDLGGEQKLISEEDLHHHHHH

T2: Macaca fascicularis IL2Rγ extracellular domain expressed with a C-terminal myc-myc-hexahistidine tag (Macaca fascicularis)
T2 construct: also called mfIL-2Rg-MMH; mfIL-2RG-MMH
T2 chain: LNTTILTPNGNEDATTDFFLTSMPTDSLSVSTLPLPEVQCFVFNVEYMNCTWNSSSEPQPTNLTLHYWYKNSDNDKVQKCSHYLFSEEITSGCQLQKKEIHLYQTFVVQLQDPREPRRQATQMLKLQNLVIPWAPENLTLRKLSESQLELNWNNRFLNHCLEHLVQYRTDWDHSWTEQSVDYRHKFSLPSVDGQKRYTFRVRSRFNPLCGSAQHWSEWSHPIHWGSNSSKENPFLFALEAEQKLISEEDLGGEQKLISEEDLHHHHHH


How the values were obtained:
[1] = biological target: T1, Human IL2Rγ extracellular domain …; test: SPR, captured mAb, 37C, dissociation pH 7.4
Protocol: (§1) The dissociation rate constant (kd) for binding of IL-2Rγ reagents to purified anti-IL2Rγ monoclonal antibodies was determined using a real-time surface plasmon resonance based Biacore 4000 biosensor platform. […] The CM5 Biacore sensor surface derivatized by amine coupling with monoclonal mouse anti-human Fc antibody (GE, Catalog # BR-1008-39) was used to capture anti-IL2Rγ monoclonal antibodies expressed with human IgG4 Fc. All the IL2Rγ reagents were expressed with a C-terminal myc-myc-hexahistidine tag (subsequently referred to with a -MMH suffix). […] The dissociation of bound IL-2Rg-MMH was performed in PBS-T-pH7.4 or PBS-T-pH6.0 running buffers for 6 minutes.
(§2) Dissociation rate constants (kd) in two running buffers were determined by fitting the real-time binding sensorgrams to a 1:1 binding model using Scrubber 2.0c curve-fitting software. Values of dissociation rate for […] mAb binding to hIL-2RG-MMH and mfIL-2RG-MMH at 25° C. and 37° C. in PBS-T-pH7.4 and PBS-T-pH6.0 is shown in Table 2-1 through Table 2-8.

[2] = biological target: T2, Macaca fascicularis IL2Rγ extracellular …; test: SPR, captured mAb, 25C, dissociation pH 7.4
Protocol: as §1, §2

[3] = biological target: T1, Human IL2Rγ extracellular domain …; test: SPR, captured mAb, 25C, dissociation pH 7.4
Protocol: as §1, §2

[4] = biological target: T1, Human IL2Rγ extracellular domain …; test: SPR, captured mAb, 37C, dissociation pH 6.0
Protocol: as §1, §2

[5] = biological target: T2, Macaca fascicularis IL2Rγ extracellular …; test: SPR, captured mAb, 25C, dissociation pH 6.0
Protocol: as §1, §2

[6] = biological target: T1, Human IL2Rγ extracellular domain …; test: SPR, captured mAb, 25C, dissociation pH 6.0
Protocol: as §1, §2

| Binder | 100 nM Ag Bound (RU) [1] | koff [1] | t1/2 [1] | 100 nM Ag Bound (RU) [2] | koff [2] | t1/2 [2] | 100 nM Ag Bound (RU) [3] | koff [3] | t1/2 [3] | 100 nM Ag Bound (RU) [4] | koff [4] | t1/2 [4] | 100 nM Ag Bound (RU) [5] | koff [5] | t1/2 [5] | 100 nM Ag Bound (RU) [6] | koff [6] | t1/2 [6] |
| --- | --- | --- | --- | --- | --- | --- | --- | --- | --- | --- | --- | --- | --- | --- | --- | --- | --- | --- |
| H4H12858P (antibody, human IgG4 S228P, kappa, V domains shown, anti-IL2Rgamma mAb expressed with human IgG4 Fc; also called REGN9433) VH: EVQLVESGGDLVQPGGSLRLSCTASGFIFRNYAMNWVRQAPGKGLEWLSGILGSNDNTYYVDSVKGRFTISRDNSRNTLYLQMNSLRAEDSAVYYCAKGDAGGFDYWGQGTLVTVSS VL: DVVMTQSPLSLPVILGQPASISCRSSQSLVSSDGNTYLNWFQQRPGQSPRRLIYKVSNRDSGVPDRFSGSGSGTDFTLKISRVEAEDVGAYYCMQGSYWPPTFGQGTKLEIKR | 141 RU | 0.000661 s⁻¹ | 17 min | 111 RU | 0.000171 s⁻¹ | 68 min | 111 RU | 0.000184 s⁻¹ | 63 min | 136 RU | 0.00172 s⁻¹ | 7 min | 100 RU | 0.000385 s⁻¹ | 30 min | 103 RU | 0.000377 s⁻¹ | 31 min |
| H4H13538P (antibody, human IgG4 S228P, kappa, V domains shown, anti-IL2Rgamma mAb expressed with human IgG4 Fc) VH: EVQLVESGGGLVQPGGSLGLSCAASGFTFSNYAMSWVRQAPGKGLEWVSAVSGGGGGTYYADSVKGRFTISRDNSKNTVLLQMNSLRAEDTAVYYCARGRTGGLDYWGPGTLVTVSS VL: DVVMTQSPLSLPVIFGQPASISCRSSQSLVDSDGNTYLNWLQQRPGQSPRRLIYEVSNRDSGVPDRFSGSGSGTDFTLTISRVEAEDVGIYYCMQGTRWPPTFGGGTKVEIKR | 110 RU | 0.000599 s⁻¹ | 19 min | 94 RU | 0.000179 s⁻¹ | 65 min | 82 RU | 0.000139 s⁻¹ | 83 min | 120 RU | 0.00148 s⁻¹ | 8 min | 96 RU | 0.000439 s⁻¹ | 26 min | 93 RU | 0.000417 s⁻¹ | 28 min |
| H4H12922P2 (antibody, human IgG4 S228P, kappa, V domains shown, anti-IL2Rgamma mAb expressed with human IgG4 Fc; also called REGN7256) VH: QVQLVESGGGVVKPGGSLRLSCAASGFTFSNSGIHWVRQAPGKGLEWVALISYAGSNKYYADSVKGRFTISRDNSKNTLSLQMNSLRAEDTAVYYCAKEVWTGTYDSFDMWGRGTMVTVSS VL: not shown | 184 RU | 0.000773 s⁻¹ | 15 min | 168 RU | 0.000191 s⁻¹ | 61 min | 164 RU | 0.000204 s⁻¹ | 57 min | 147 RU | 0.00374 s⁻¹ | 3 min | 129 RU | 0.00111 s⁻¹ | 10 min | 126 RU | 0.00118 s⁻¹ | 10 min |
| H4H12913P2 (antibody, human IgG4 S228P, kappa, V domains shown, anti-IL2Rgamma mAb expressed with human IgG4 Fc) VH: EVQLVESGGGVVRPGGSLRLSCAASGFTFDDYGMSWVRQAPGKGLEWISSINRNGGSADYADSVKGRFTISRDNAKNSLFLQMSSLRAEDTALYHCASGEFRFDYWGQGTLVTVSS VL: not shown | 82 RU | 0.00116 s⁻¹ | 10 min | 57 RU | 0.000272 s⁻¹ | 43 min | 56 RU | 0.000303 s⁻¹ | 38 min | 59 RU | 0.00383 s⁻¹ | 3 min | 44 RU | 0.000992 s⁻¹ | 12 min | 43 RU | 0.00105 s⁻¹ | 11 min |
| H4H12927P2 (antibody, human IgG4 S228P, kappa, V domains shown, anti-IL2Rgamma mAb expressed with human IgG4 Fc) VH: EVQLVESGGGVVRPGGSLRLSCATSGFTFDDYGMSWVRQVPGKGLEWVSSVNRNGGTTDYADSVKGRFTISRDNAKRSLFLQMNSLRAEDTALYHCATGELFFDYWGQGTLVTVSS VL: not shown | 23 RU | 0.00982 s⁻¹ | 1.2 min | 38 RU | 0.000984 s⁻¹ | 12 min | 36 RU | 0.00163 s⁻¹ | 7 min | 19 RU | 0.0239 s⁻¹ | 0.5 min | 30 RU | 0.0032 s⁻¹ | 3.6 min | 30 RU | 0.00499 s⁻¹ | 2.3 min |
| H4H12859P (antibody, human IgG4 S228P, kappa, V domains shown, anti-IL2Rgamma mAb expressed with human IgG4 Fc) VH: QVQLVQSGAEVKKPGASVRVSCKASGYTFTDYDIHWVRQAPGHGLEWMGWINPNSGGTNYAQKFQGRVTMTRDTSISTVYMDLSRLRSDDTAVYYCARADYSSSYYYYGMDVWGQGTTVTVSS VL: not shown | 55 RU | 0.00454 s⁻¹ | 2.5 min | 51 RU | 0.000871 s⁻¹ | 13 min | 54 RU | 0.00111 s⁻¹ | 10 min | 36 RU | 0.0132 s⁻¹ | 0.9 min | 37 RU | 0.00413 s⁻¹ | 2.8 min | 39 RU | 0.00503 s⁻¹ | 2.3 min |
| H4H12874P (antibody, human IgG4 S228P, kappa, V domains shown, anti-IL2Rgamma mAb expressed with human IgG4 Fc) VH: QVQLVESGGGVVQPGRSLRLSCAASGFNFRNFGMHWVRQAPGKGLEWVAGILYDGSSKYYADSVKDRFTISRDNSKNTLFLQMNSLRAEDTAMYYCAKEEDTAMVPFDSWGPGTLVTVSS VL: DIQLTQSPSFLSASVGDRVTITCWASQGISSYLAWYQQKPGKAPTLLIYAASTLQSGVPSRFSGSGSGTEFTLTISSLQPEDFASYYCQQLKSYPLTFGGGTKVEIKR | 99 RU | 0.000572 s⁻¹ | 20 min | 73 RU | 0.000164 s⁻¹ | 70 min | 72 RU | 0.000162 s⁻¹ | 71 min | 91 RU | 0.00261 s⁻¹ | 4 min | 64 RU | 0.000729 s⁻¹ | 16 min | 66 RU | 0.000724 s⁻¹ | 16 min |
| H4H12871P (antibody, human IgG4 S228P, kappa, V domains shown, anti-IL2Rgamma mAb expressed with human IgG4 Fc; also called REGN9434) VH: QVQLQESGPGLVKPSQTLSLTCTVSGGSITSGGYYWSWIRQYPGQGLEWIGYIYYSGKTYYNPSFTSRITISVDTSKKQFSLKMSSVTAADTAVYYCARAGFTSSNGWFDPWGQGTLVTVSS VL: DIQMTQSPSSLSASVGDRVTITCRASQNIRSYLNWYQQKPGKAPKLLIYSASSLQSGVPSRFSGSGSGTDFTLTISSLQPEDFPTYYCQQTYSSPWTFGPGTKVEIKR | 139 RU | 0.00111 s⁻¹ | 10 min | 125 RU | 0.000481 s⁻¹ | 24 min | 121 RU | 0.000596 s⁻¹ | 19 min | 141 RU | 0.00246 s⁻¹ | 5 min | 128 RU | 0.00116 s⁻¹ | 10 min | 129 RU | 0.00136 s⁻¹ | 8 min |
| H4H12863P (antibody, human IgG4 S228P, kappa, V domains shown, anti-IL2Rgamma mAb expressed with human IgG4 Fc) VH: QVQLVESGGGVVQPGRSLRLSCTASGFTFRSYDMYWVRQAPGKGLEWVSVITYDGNNKYYADSVKGRFTISRDNSKNTLFLQMSSLRPEDTAVYYCAKRGLIWVGESFDYWGQGTLVTVSS VL: DIQMTQSPSTLSASVGDRVTITCRASQSINSWLAWYQQKPGKAPNLLIYKASSLESGVPSRFSGSGSGTEFTLTISSLQPDDFATYYCQQYKSYSWTFGQGTKVEIKR | 176 RU | 0.000672 s⁻¹ | 17 min | 155 RU | 0.000194 s⁻¹ | 59 min | 151 RU | 0.000172 s⁻¹ | 67 min | 145 RU | 0.00226 s⁻¹ | 5 min | 118 RU | 0.000761 s⁻¹ | 15 min | 116 RU | 0.000762 s⁻¹ | 15 min |
